Data from the supplement of paper PMC7125110.
± gives the standard error. Variants at the floor of the assay were thinned out.

B1: glmS ribozyme (parent)
chain: AUAAAAGCGCCAGAACUACAGAAAUGUAGUUGACGAGGAGGAGGUUUAUCGAAUUUUCGGCGGAUGCCUCCAAA

Variants of: B1
Test: self-cleavage kobs at 2500 uM GlcN6P; higher = faster cleavage; RNA array
Settings: with glucosamine-6-phosphate
In short: (§1)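 A hybridised Cy3 probe tracked barcoded ribozyme variants, transcribed in situ by E. coli RNA polymerase on sequenced MiSeq chips, at 37 °C. The variants received 40 μM to 10 mM glucosamine-6-phosphate in HEPES/KCl/Mg(OAc)2 buffer. kobs came from decay fits and kcat and KM from weighted Michaelis–Menten fits.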

Variant	self-cleavage kobs at 2500 uM GlcN6P
C11G G38U A42U G43A	< 1e-05 s⁻¹
A12C U31G G32A	0.000161 ± 5.6e-05 s⁻¹
G9C G60A C67U	< 1e-05 s⁻¹
C11G U30G U49A	< 1e-05 s⁻¹
C11U G35U C67A C70A	5.48e-05 ± 2.6e-05 s⁻¹
C11U A39G A42G	0.00125 ± 0.00043 s⁻¹
G9A U31G G40C	< 1e-05 s⁻¹
A12G A14U A64G	0.000293 ± 7.2e-05 s⁻¹
G7C A52U U55G C68G	< 1e-05 s⁻¹
G7C A53U U54G	< 1e-05 s⁻¹
C10A G35A A36U	< 1e-05 s⁻¹
C8A U57C C70G C71U	< 1e-05 s⁻¹
C10U G29U G38A	0.00158 ± 0.0007 s⁻¹
A12G U30C C58A	0.000105 ± 3.1e-05 s⁻¹
C10A G63A C71U	< 1e-05 s⁻¹
G7C A14G G43A U46A U47C G60U	< 1e-05 s⁻¹
G9U G40A U45G C50A	< 1e-05 s⁻¹
C8A G29C A42G U45C U46G	< 1e-05 s⁻¹
C8A U55A C71U	< 1e-05 s⁻¹
C10G A12U C50G	0.000103 ± 2.4e-05 s⁻¹
A12G G32C	2.23e-05 ± 9.3e-06 s⁻¹
G7A G29C G38A G44C	< 1e-05 s⁻¹
C8A C34A U69C	< 1e-05 s⁻¹
G7U U56G C58U	< 1e-05 s⁻¹
C10G C11U G32A U45C	< 1e-05 s⁻¹
G7U G32C C68A	< 1e-05 s⁻¹
A12G G63A C67A	< 1e-05 s⁻¹

Variant	self-cleavage kobs at 2500 uM GlcN6P
C10U A14U G44U C61U	< 1e-05 s⁻¹
C8A C11U C34G G38A	< 1e-05 s⁻¹
G9C A15U A42U	< 1e-05 s⁻¹
C8U G37U A39C	< 1e-05 s⁻¹
C10U A36U G51C A53C	< 1e-05 s⁻¹
C10U A52U A53U U55C U65G	< 1e-05 s⁻¹
C11A C34A G60U	< 1e-05 s⁻¹
C8A U45G U57A	< 1e-05 s⁻¹
C11A A42U G43A	< 1e-05 s⁻¹
C10G C50G U55A	6.66e-05 ± 2.3e-05 s⁻¹
C11G A42C G43A C70U	< 1e-05 s⁻¹
C10U G43C C61U C70U	< 1e-05 s⁻¹
C8A G13A U56C	< 1e-05 s⁻¹
G7U G9A G29A A39G	< 1e-05 s⁻¹
C10A A33U A48U	< 1e-05 s⁻¹
G9U G35A A36G G63U	< 1e-05 s⁻¹
G9A G62U U69G	< 1e-05 s⁻¹
A12C G41A G63A	< 1e-05 s⁻¹
G9U C10U C34U A53U G63U	< 1e-05 s⁻¹
C8G A42C U45C C71G	< 1e-05 s⁻¹
C8G C10A G44U	< 1e-05 s⁻¹
G7U U57C C68G	< 1e-05 s⁻¹
C8U U30A U46G	< 1e-05 s⁻¹
C10G G37A U56G G62U	< 1e-05 s⁻¹
G7U G32C C34U	< 1e-05 s⁻¹
G7U G29C A42C	< 1e-05 s⁻¹
C10G U46A U56G	< 1e-05 s⁻¹

Variant	self-cleavage kobs at 2500 uM GlcN6P
G7C C8G G40C	< 1e-05 s⁻¹
C8A G32U A42U A48G G51C	< 1e-05 s⁻¹
G7A G40A C71A	< 1e-05 s⁻¹
C11G G29U C50U C67U	0.0015 ± 0.00049 s⁻¹
C10A C11U A36C	< 1e-05 s⁻¹
C8U C16U G60C C71G	< 1e-05 s⁻¹
C8U A33C C58G	< 1e-05 s⁻¹
A12C A36U U46G	< 1e-05 s⁻¹
C11A C16U A53U	5.99e-05 ± 2.5e-05 s⁻¹
C8G U30C A36C U69C	< 1e-05 s⁻¹
G9U G38C U54G G62C	< 1e-05 s⁻¹
C11G C16U G51A U65A C67G	8.38e-05 ± 3e-05 s⁻¹
G9A C50G C67G	9.36e-05 ± 2.6e-05 s⁻¹
C10G G35U G38A G41U	< 1e-05 s⁻¹
G7C A14C G60C	< 1e-05 s⁻¹
C8U C16U G60A C67A	< 1e-05 s⁻¹
C10G G38U	< 1e-05 s⁻¹
C8A G29U G32U	< 1e-05 s⁻¹
G9A A14G U56G	5.76e-05 ± 2.3e-05 s⁻¹
G9U G29A G63A	< 1e-05 s⁻¹
G7C C10G G51U	< 1e-05 s⁻¹
C10U C16U G32U	6.59e-05 ± 1.7e-05 s⁻¹
C8U C10A A15C	< 1e-05 s⁻¹
G7U G9C U57A G60C	< 1e-05 s⁻¹
C8A G32C G40U U55A	< 1e-05 s⁻¹

Variants of: B1
Test: self-cleavage kobs at 10000 uM GlcN6P; higher = faster cleavage; RNA array
Settings: with glucosamine-6-phosphate
In short: as §1

Variant	self-cleavage kobs at 10000 uM GlcN6P
C8A G29C A42G U45C U46G	< 1e-05 s⁻¹
A12G G32C	3.88e-05 ± 7.6e-06 s⁻¹
G7A G29C G38A G44C	< 1e-05 s⁻¹
C8A C34A U69C	< 1e-05 s⁻¹
G7U U56G C58U	< 1e-05 s⁻¹
C8G A42C U45C C71G	< 1e-05 s⁻¹
C8G U30C A36C U69C	< 1e-05 s⁻¹
